Data on eleven molecules can be found in US20220153819A1 (Regeneron, published 2022).

Where two headings read alike, the source gives them in different places.

In assay [1] the target is T1, human complement component 1q (C1q) (human, UniProt P02745 23-245; P02746 28-253; P02747 29-245).
Assay [2] concerns the target T2, biotinylated human C1q (human, UniProt P02745 23-245; P02746 28-253; P02747 29-245).
For assay [3], the target named is T1, human complement component 1q (C1q). The source holds these as a separate data set.
Assay [4] addresses T2, biotinylated human C1q. This is another data set of the same source.
The target of assay [5] is T1, human complement component 1q (C1q). This is another data set of the same source.
The target of assay [6] is T3, CD20 on Raji cells (human, UniProt P11836 1-297).
T3 sequence (looked up): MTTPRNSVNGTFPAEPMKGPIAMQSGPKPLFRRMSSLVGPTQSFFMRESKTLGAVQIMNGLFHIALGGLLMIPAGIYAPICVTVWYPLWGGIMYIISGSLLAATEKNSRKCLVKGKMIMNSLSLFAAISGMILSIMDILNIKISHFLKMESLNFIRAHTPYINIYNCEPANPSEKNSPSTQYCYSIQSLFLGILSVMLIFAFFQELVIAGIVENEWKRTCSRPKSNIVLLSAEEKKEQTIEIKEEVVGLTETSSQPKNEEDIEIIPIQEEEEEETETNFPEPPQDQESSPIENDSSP

In assay [7] the target is T3, CD20 on Raji cells. This is another data set of the same source.
Assay [8] addresses T4, hemagglutinin (HA) on A/Puerto Rico/08/1934 (H1N1)-infected MDCK cells (Influenza A virus A/Puerto Rico/08/1934 …, UniProt P03452 18-565). Put plainly: cell-based or functional assay.
For assay [9], the target named is T4, hemagglutinin (HA) on A/Puerto …. Nature of the assay: cell ELISA on fixed A/Puerto Rico/08/1934 (H1N1)-infected MDCK cells. (ELISA stands for enzyme-linked immunosorbent assay.)
For assay [10], the target named is T2, biotinylated human C1q.
The target in assay [11] is T1, human complement component 1q (C1q). Nature of the assay: SPR (Biacore T200), 37C; bsAb captured via anti-human F(ab')2, hC1q injected. On the technique in general: SPR reads the build-up and loss of mass on a sensor chip optically.
Assay [12] has the same target. Put plainly: SPR (Biacore T200), 25C; bsAb captured via anti-human F(ab')2, hC1q injected.
The target in assay [13] is T2, biotinylated human C1q. This is another data set of the same source.
Assay [14] concerns the target T5, human GITR on Jurkat/hGITR/hCD20 cells (human, UniProt Q9Y5U5 26-241).
T5 sequence (looked up): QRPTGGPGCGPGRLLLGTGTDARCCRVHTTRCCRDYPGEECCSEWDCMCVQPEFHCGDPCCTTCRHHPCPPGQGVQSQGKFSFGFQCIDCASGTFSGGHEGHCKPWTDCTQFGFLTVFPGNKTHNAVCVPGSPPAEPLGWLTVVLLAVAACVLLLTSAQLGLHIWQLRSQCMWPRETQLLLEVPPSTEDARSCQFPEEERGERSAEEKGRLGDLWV

The next assay concerns the target IsdB.6×(His) (Staphylococcus aureus, UniProt A6QG30 41-613). Nature of the assay: SPR (Biacore T200), 37C; antibody captured, IsdB.6xHis injected.
Another assay addresses T6, IsdA.6×(His) (Staphylococcus aureus, UniProt A6QG31 47-316).
T6 sequence: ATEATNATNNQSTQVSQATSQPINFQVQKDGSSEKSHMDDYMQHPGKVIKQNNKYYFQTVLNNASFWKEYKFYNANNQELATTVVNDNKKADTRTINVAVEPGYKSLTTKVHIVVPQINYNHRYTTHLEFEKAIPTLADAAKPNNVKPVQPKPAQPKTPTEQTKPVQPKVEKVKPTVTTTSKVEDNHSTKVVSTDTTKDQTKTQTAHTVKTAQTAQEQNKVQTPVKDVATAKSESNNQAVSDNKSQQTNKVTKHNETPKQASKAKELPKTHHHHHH
Put plainly: SPR (Biacore), 37C; IsdA.6xHis captured, bsAb injected.

T1 sequence (P02745 23-245, chain 1 of 3): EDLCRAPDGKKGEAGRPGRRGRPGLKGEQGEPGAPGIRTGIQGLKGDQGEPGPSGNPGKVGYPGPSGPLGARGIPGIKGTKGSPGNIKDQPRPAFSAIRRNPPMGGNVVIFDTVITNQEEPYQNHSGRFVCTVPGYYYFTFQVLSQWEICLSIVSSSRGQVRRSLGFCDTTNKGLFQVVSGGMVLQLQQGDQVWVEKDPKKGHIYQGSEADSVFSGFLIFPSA
T1 sequence (P02746 28-253, chain 2 of 3): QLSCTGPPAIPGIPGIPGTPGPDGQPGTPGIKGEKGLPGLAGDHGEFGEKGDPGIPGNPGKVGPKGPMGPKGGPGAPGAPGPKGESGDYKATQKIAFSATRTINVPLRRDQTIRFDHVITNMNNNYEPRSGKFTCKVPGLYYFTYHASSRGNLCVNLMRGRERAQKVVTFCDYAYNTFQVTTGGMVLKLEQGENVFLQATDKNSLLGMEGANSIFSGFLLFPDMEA
T1 sequence (P02747 29-245, chain 3 of 3): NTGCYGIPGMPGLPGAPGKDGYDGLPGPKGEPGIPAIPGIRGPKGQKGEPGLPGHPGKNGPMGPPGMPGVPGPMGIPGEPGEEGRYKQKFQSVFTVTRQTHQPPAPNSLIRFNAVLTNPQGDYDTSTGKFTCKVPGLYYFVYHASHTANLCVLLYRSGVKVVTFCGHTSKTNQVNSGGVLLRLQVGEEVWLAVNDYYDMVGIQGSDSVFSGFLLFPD
T2 sequence (P02745 23-245, chain 1 of 3): as the sequence (P02745 23-245, chain 1 of 3) above
T2 sequence (P02746 28-253, chain 2 of 3): as the sequence (P02746 28-253, chain 2 of 3) above
T2 sequence (P02747 29-245, chain 3 of 3): as the sequence (P02747 29-245, chain 3 of 3) above

B1: REGN5409, anti-Psl x anti-C1q scFv bispecific antibody (bispecific antibody, human IgG1, lambda)
heavy: not shown
light: SSELTQDPAVSVALGQTVRITCQGDSLRSYYASWYQQKPGQAPVLVIYGKNNRPSGIPDRFSGSSSGNTASLTITGAQAEDEADYYCNSRDSSGNHVVFGGGTKLTVLGQPKAAPSVTLFPPSSEELQANKATLVCLISDFYPGAVTVAWKADSSPVKAGVETTTPSKQSNNKYAASSYLSLTPEQWKSHRSYSCQVTHEGSTVEKTVAPTECS
scFv: not shown
In general, Kd refers to the equilibrium constant for the complex coming apart. A higher Kd goes with weaker binding. For orientation: koff means the rate constant with which the complex falls apart. Low values mean slow dissociation, high ones fast dissociation. One may read the kon as a measure of how fast the partners come together. A high value points to faster complex formation. Turning to B1, the equilibrium dissociation constant (Kd) in assay [1] stood at 2.41 nM; with biotinylated human C1q [2], 343 nM; in assay [3], 0.747 nM; with biotinylated human C1q [4], 431 nM. The off-rate (koff) was found to be 0.0116 s⁻¹ in [1], 0.0149 s⁻¹ in the assay with biotinylated human C1q [2], 0.00262 s⁻¹ in assay [3] and 0.0276 s⁻¹ with biotinylated human C1q [4]. Further, the association rate constant (kon) worked out at 4.8e+06 M⁻¹ s⁻¹ in [1], 43500 M⁻¹ s⁻¹ with biotinylated human C1q [2], 3.51e+06 M⁻¹ s⁻¹ in assay [3] and 64000 M⁻¹ s⁻¹ in the assay with biotinylated human C1q [4].

B2: REGN5536, anti-PNAG x anti-C1q scFv bispecific antibody (bispecific antibody, human IgG1, lambda)
heavy: not shown
light: QLVLTQSPSASASLGASVKLTCTLSSGHSNYAIAWHQQQPGKGPRYLMKVNRDGSHIRGDGIPDRFSGSTSGAERYLTISSLQSEDEADYYCQTWGAGIRVFGGGTKLTVLGQPKAAPSVTLFPPSSEELQANKATLVCLISDFYPGAVTVAWKADSSPVKAGVETTTPSKQSNNKYAASSYLSLTPEQWKSHRSYSCQVTHEGSTVEKTVAPTECS
scFv: not shown
In assay [5], B2 registered a Kd of 0.632 nM, a koff of 0.0102 s⁻¹ and an on-rate constant (kon) of 1.61e+07 M⁻¹ s⁻¹.

B3: Rituximab (antibody, V domains shown)
VH: QVQLQQPGAELVKPGASVKMSCKASGYTFTSYNMHWVKQTPGRGLEWIGAIYPGNGDTSYNQKFKGKATLTADKSSSTAYMQLSSLTSEDSAVYYCARSTYYGGDWYFNVWGAGTTVTVSA
VL: QIVLSQSPAILSASPGEKVTMTCRASSSVSYIHWFQQKPGSSPKPWIYATSNLASGVPVRFSGSGSGTSYSLTISRVEAEDAATYYCQQWTSNPPTFGGGTKLEIK
Broadly, the EC50 is the concentration giving half of the maximal effect. Consider B3, for which the EC50 with CD20 on Raji cells [6] and with CD20 on Raji cells [7] was 3.14 nM in each case.

B4: mAb11829, parental anti-HA bivalent antibody (antibody, V domains shown)
VH: QVHLVQSGPEVKKPGSSVKVSCKASGVTFISHAISWVRQAPGQGLEWVGGIIAIFGTTNYAQKFQGRVTVTTDKSTNTVYMELSRLRSEDTAIYYCARGETYYEGNFDFWGQGTLVTVSS
VL: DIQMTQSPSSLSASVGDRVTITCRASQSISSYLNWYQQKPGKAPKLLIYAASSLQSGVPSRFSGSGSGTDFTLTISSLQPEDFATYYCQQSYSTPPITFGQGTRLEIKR
notes: also called Flu A, group 1 HA; parental HA bivalent antibody
Consider B4, for which, in assay [8], the “CDC EC50 (H1N1-infected MDCK cells)” value worked out at 20.8 nM and the “Maximum percent specific lysis (CDC of H1N1-infected MDCK cells)” value (shortened to “Maximum percent specific lysis”) stood at 35.8%. In assay [9], a half-maximal effect (EC50) was put at 1.46 nM and the “Maximum binding (RLUs)” value was determined as 788000 RLU.

B5: mAb27250, one-arm parental HA antibody (antibody, V domains shown)
VH: B4 VH
VL: not shown
notes: also called Flu A, group 1, one arm
As for B5, in assay [8], the “CDC EC50 (H1N1-infected MDCK cells)” value turned out to be 20.7 nM and the “Maximum percent specific lysis” value turned out to be 39%. For the same molecule, in [9], the EC50 was determined as 0.648 nM and the “Maximum binding (RLUs)” value was 719000 RLU.

B6: REGN6093, anti-Influenza HA x anti-C1q bispecific antibody (bispecific antibody, V domains shown)
VH 1: B4 VH
VH 2: EVQLVESGGGVVQPGGSLRLSCAASGFSLDDYAMHWVRQTPGKGLEWVSLISGDGSRTSYADSVKGRFTISRDNSKNSLYLKMNSLRTEDTALYYCTKDPHNSNWFDPWGQGTLVTVSS
VL: not shown
notes: also called FluA group 1 x C1q bispecific; anti-HA x anti-C1q
In the assay with biotinylated human C1q [10], B6 returned a Kd of 516 nM, a koff of 0.0937 s⁻¹, an on-rate (kon) of 182000 M⁻¹ s⁻¹ and a t1/2 of 0.12 min. Moreover, in [8], the “CDC EC50 (H1N1-infected MDCK cells)” value was determined as 10.5 nM and the “Maximum percent specific lysis” value came to 30%. In addition, in [11], the dissociation constant Kd was determined as 1.11 nM, the koff is 0.00401 s⁻¹, the on-rate constant (kon) came to 3.61e+06 M⁻¹ s⁻¹ and the t1/2 was 2.9 min. In [12], this molecule yielded a Kd of 0.451 nM, a koff of 0.00216 s⁻¹, a kon of 4.8e+06 M⁻¹ s⁻¹ and a t1/2 of 5.3 min. In the assay with biotinylated human C1q [13], this molecule registered a Kd of 327 nM, a koff of 0.0309 s⁻¹, a kon of 94600 M⁻¹ s⁻¹ and a t1/2 of 0.37 min. Moreover, in assay [9], the EC50 was determined as 1.84 nM and the “Maximum binding (RLUs)” value is 849000 RLU.

B7: REGN5372, anti-GITR bivalent hIgG1 antibody (antibody, V domains shown)
VH: QVQLQESGPGLVKPSETLSLTCIVSGGSISGYFWNWIRQPPGKGLEWIGYIYYSGTTIYNPSLKSRFTISLDTSKNQFSLKLTSVTAADTAVYYCARESYNPSPRYFDHWGQGTLVTVSS
VL: not shown
In [14], B7 returned a half-maximal effective concentration (EC50) of 3.07 nM.

B8: parental bivalent anti-IsdB antibody (antibody, V domains shown)
VH: EVQLVESGGGLVQPGRSLRLSCTTSGFTFDDYAMHWVRQVPGQGLEWVAGLSWNSDTIGYADSVKGRFTISRDNAKNSLYLQMKSLKAEDTALYYCTKDFYHSLNNWNYYYFDYWGQGTLVTVSS
VL: not shown
notes: also called anti-IsdB bival; bivalent IsdB antibody
B8: in the assay with IsdB.6×(His), the Kd stood at 1.75 nM, the T1/2 amounted to 18 min, the koff was 0.00064 s⁻¹ and the kon amounted to 365000 M⁻¹ s⁻¹.

B9: REGN5177, anti-CD20 x anti-C1q bispecific antibody (bispecific antibody, V domains shown)
VH 1: QVHLVESGGGVVQPGRSLRLSCSVSGLTFNSYGMHWVRQAPGKGLEWVTMISYDGSDKYYLDSVKGRFTISRDNSKNILYLQINSLRPEDTAVYYCVNWDNWRGNFDYWGQGTLVTVSS
VH 2: B6 VH 2
VL: not shown
With B9, the dissociation constant (Kd) amounted to 0.481 nM in [1], 0.688 nM in [3] and 436 nM with biotinylated human C1q [4]. Moreover, the dissociation rate constant (koff) in assay [1] amounted to 0.00499 s⁻¹; in assay [3] it was 0.00224 s⁻¹; with biotinylated human C1q [4] it was 0.0442 s⁻¹. The values for the kon (in assay [1]; in [3]; with biotinylated human C1q [4]) were 1.04e+07 M⁻¹ s⁻¹, 3.26e+06 M⁻¹ s⁻¹ and 101000 M⁻¹ s⁻¹, respectively. Moreover, the figures for the EC50 in the assay with CD20 on Raji cells [6] and with CD20 on Raji cells [7] were 35.6 nM and 35.7 nM, respectively.

B10: mAb14303, anti-CD20 parental bivalent hIgG1 antibody (antibody, V domains shown)
VH: B9 VH 1
VL: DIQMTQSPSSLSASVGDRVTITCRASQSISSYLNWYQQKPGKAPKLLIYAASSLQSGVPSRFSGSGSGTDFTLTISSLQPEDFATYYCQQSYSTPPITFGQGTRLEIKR
Regarding B10, the EC50 with CD20 on Raji cells [6] and with CD20 on Raji cells [7] was 6.03 nM in each case.

B11: REGN5553, anti-IsdA x anti-C1q bispecific antibody (bispecific antibody, V domains shown)
VH 1: EVQLVESGGGLVQPGRSLRVSCAASGFTFDDYAMHWVRQIPGKGLEWVSGIRWNSDTIGYADSVKGRFTISRDNAKNFLYLQMNSLRTEDTALYYCVKDMRVRGIIMYGMDVWGQGTTVTVSS
VH 2: B6 VH 2
VL: not shown
notes: also called bsC1q × IsdA; bs hC1q × IsdA
Take B11: in the assay with IsdA.6×(His), the Kd was found to be 3.62 nM, the T1/2 was determined as 11.8 min, the dissociation rate constant (koff) was 0.000977 s⁻¹ and the kon came to 270000 M⁻¹ s⁻¹. For the same molecule, in assay [5], the affinity, expressed as Kd, was 1.3 nM; the koff came out at 0.00469 s⁻¹; the kon was 3.62e+06 M⁻¹ s⁻¹.
